# Data: article doi:10.1101/466904v1
# Where a chain is given by its changes, count along the chain named. Names may count otherwise.
# B1: Axe2 (Geobacillus stearothermophilus) (protein)
# chain: MKIGSGEKLLFIGDSITDCGRARPEGEGSFGALGTGYVAYVVGLLQAVYPELGIRVVNKGISGNTVRDLKARWEEDVIAQKPDWVSIMIGINDVWRQYDLPFMKEKHVYLDEYEATLRSLVLETKPLVKGIILMTPFYIEGNEQDPMRRTMDQYGRVVKQIAEETNSLFVDTQAAFNEVLKTLYPAALAWDRVHPSVAGHMILARAFLREIGFEWVRSR
# B2: Axe2 (Geobacillus stearothermophilus; R205A/W215A/Y184F) (protein)
# chain: B1 chain with Y184F, R205A, W215A
# B3: Axe2 (Geobacillus stearothermophilus; W190P/Y184F) (protein)
# chain: B1 chain with Y184F, W190P
# B4: Axe2 (Geobacillus stearothermophilus; Y184F) (protein)
# chain: B1 chain with Y184F
# B5: Axe2 (Geobacillus stearothermophilus; W190I) (protein)
# chain: B1 chain with W190I
# B6: Axe2 (Geobacillus stearothermophilus; R55E) (protein)
# chain: B1 chain with R55E
# B7: Axe2 (Geobacillus stearothermophilus; R55A) (protein)
# chain: B1 chain with R55A
# B8: Axe2 (Geobacillus stearothermophilus; Y184N) (protein)
# chain: B1 chain with Y184N
# Substrate: CC(=O)Oc1ccc2ccccc2c1
# Assay: esterase activity assay
# Assay type: biochemical, Geobacillus stearothermophilus
# Settings: 2-naphthyl acetate 1-20 mM in isopropanol, citrate phosphate buffer pH 7
Protein,Km,kcat
B1,300 µM,720 s⁻¹
B2,6700 µM,42 s⁻¹
B3,3000 µM,44 s⁻¹
B4,4600 µM,36 s⁻¹
B5,700 µM,290 s⁻¹
B6,500 µM,1000 s⁻¹
B7,600 µM,1000 s⁻¹
B8,1300 µM,8.0x10^0 sec-1
